Assay results from patent US20060263802A1 (CRUCELL HOLLAND B V, published 2006).

How the values were obtained:
Assay in all cases: PEPSCAN ELISA, looped peptide, 10 ug/ml
[1] = target: looped/cyclic peptide … (rabies virus strain ERA)
[2] = target: looped/cyclic peptide … (rabies virus strain ERA); remark: listed apart in the source
[3] = target: looped/cyclic peptide … (rabies virus strain ERA); remark: listed apart in the source
[4] = target: looped/cyclic peptide … (rabies virus strain ERA); remark: listed apart in the source
[5] = target: looped/cyclic peptide … (rabies virus strain ERA); remark: listed apart in the source
[6] = target: looped/cyclic peptide … (rabies virus strain ERA); remark: listed apart in the source
[7] = target: looped/cyclic peptide … (rabies virus strain ERA); remark: listed apart in the source
[8] = target: looped/cyclic peptide … (rabies virus strain ERA); remark: listed apart in the source
[9] = target: looped/cyclic peptide … (rabies virus strain ERA); remark: listed apart in the source
[10] = target: looped/cyclic peptide … (rabies virus strain ERA); remark: listed apart in the source
[11] = target: looped/cyclic peptide … (rabies virus strain ERA); remark: listed apart in the source
[12] = target: looped/cyclic peptide … (rabies virus strain ERA); remark: listed apart in the source
[13] = target: looped/cyclic peptide … (rabies virus strain ERA); remark: listed apart in the source
[14] = target: looped/cyclic peptide … (rabies virus strain ERA); remark: listed apart in the source
[15] = target: looped/cyclic peptide … (rabies virus strain ERA); remark: listed apart in the source
[16] = target: looped/cyclic peptide … (rabies virus strain ERA); remark: listed apart in the source
[17] = target: looped/cyclic peptide … (rabies virus strain ERA); remark: listed apart in the source
[18] = target: looped/cyclic peptide … (rabies virus strain ERA); remark: listed apart in the source
[19] = target: looped/cyclic peptide … (rabies virus strain ERA); remark: listed apart in the source
[20] = target: looped/cyclic peptide … (rabies virus strain ERA); remark: listed apart in the source
[21] = target: looped/cyclic peptide … (rabies virus strain ERA); remark: listed apart in the source
[22] = target: looped/cyclic peptide … (rabies virus strain ERA); remark: listed apart in the source
[23] = target: looped/cyclic peptide … (rabies virus strain ERA); remark: listed apart in the source
[24] = target: looped/cyclic peptide … (rabies virus strain ERA); remark: listed apart in the source
[25] = target: looped/cyclic peptide … (rabies virus strain ERA); remark: listed apart in the source
[26] = target: looped/cyclic peptide … (rabies virus strain ERA); remark: listed apart in the source
[27] = target: looped/cyclic peptide … (rabies virus strain ERA); remark: listed apart in the source
[28] = target: looped/cyclic peptide … (rabies virus strain ERA); remark: listed apart in the source
[29] = target: looped/cyclic peptide … (rabies virus strain ERA); remark: listed apart in the source
[30] = target: looped/cyclic peptide … (rabies virus strain ERA); remark: listed apart in the source
[31] = target: looped/cyclic peptide … (rabies virus strain ERA); remark: listed apart in the source
[32] = target: looped/cyclic peptide … (rabies virus strain ERA); remark: listed apart in the source
[33] = target: looped/cyclic peptide … (rabies virus strain ERA); remark: listed apart in the source
[34] = target: looped/cyclic peptide … (rabies virus strain ERA); remark: listed apart in the source
[35] = target: looped/cyclic peptide … (rabies virus strain ERA); remark: listed apart in the source
[36] = target: looped/cyclic peptide … (rabies virus strain ERA); remark: listed apart in the source
[37] = target: looped/cyclic peptide … (rabies virus strain ERA); remark: listed apart in the source
[38] = target: looped/cyclic peptide … (rabies virus strain ERA); remark: listed apart in the source
[39] = target: looped/cyclic peptide … (rabies virus strain ERA); remark: listed apart in the source
[40] = target: looped/cyclic peptide … (rabies virus strain ERA); remark: listed apart in the source
[41] = target: looped/cyclic peptide … (rabies virus strain ERA); remark: listed apart in the source
[42] = target: looped/cyclic peptide … (rabies virus strain ERA); remark: listed apart in the source
[43] = target: looped/cyclic peptide … (rabies virus strain ERA); remark: listed apart in the source
[44] = target: looped/cyclic peptide … (rabies virus strain ERA); remark: listed apart in the source
[45] = target: looped/cyclic peptide … (rabies virus strain ERA); remark: listed apart in the source
[46] = target: looped/cyclic peptide … (rabies virus strain ERA); remark: listed apart in the source
[47] = target: looped/cyclic peptide … (rabies virus strain ERA); remark: listed apart in the source
[48] = target: looped/cyclic peptide … (rabies virus strain ERA); remark: listed apart in the source
[49] = target: looped/cyclic peptide … (rabies virus strain ERA); remark: listed apart in the source
[50] = target: looped/cyclic peptide … (rabies virus strain ERA); remark: listed apart in the source
[51] = target: looped/cyclic peptide … (rabies virus strain ERA); remark: listed apart in the source
[52] = target: looped/cyclic peptide … (rabies virus strain ERA); remark: listed apart in the source
[53] = target: looped/cyclic peptide … (rabies virus strain ERA); remark: listed apart in the source
[54] = target: looped/cyclic peptide … (rabies virus strain ERA); remark: listed apart in the source
[55] = target: looped/cyclic peptide … (rabies virus strain ERA); remark: listed apart in the source
[56] = target: looped/cyclic peptide … (rabies virus strain ERA); remark: listed apart in the source
[57] = target: looped/cyclic peptide … (rabies virus strain ERA); remark: listed apart in the source
[58] = target: looped/cyclic peptide … (rabies virus strain ERA); remark: listed apart in the source
[59] = target: looped/cyclic peptide … (rabies virus strain ERA); remark: listed apart in the source
[60] = target: looped/cyclic peptide … (rabies virus strain ERA); remark: listed apart in the source
[61] = target: looped/cyclic peptide … (rabies virus strain ERA); remark: listed apart in the source
[62] = target: looped/cyclic peptide … (rabies virus strain ERA); remark: listed apart in the source
[63] = target: looped/cyclic peptide … (rabies virus strain ERA); remark: listed apart in the source
[64] = target: looped/cyclic peptide … (rabies virus strain ERA); remark: listed apart in the source
[65] = target: looped/cyclic peptide … (rabies virus strain ERA); remark: listed apart in the source
[66] = target: looped/cyclic peptide … (rabies virus strain ERA); remark: listed apart in the source
[67] = target: looped/cyclic peptide … (rabies virus strain ERA); remark: listed apart in the source
[68] = target: looped/cyclic peptide … (rabies virus strain ERA); remark: listed apart in the source
[69] = target: looped/cyclic peptide … (rabies virus strain ERA); remark: listed apart in the source
[70] = target: looped/cyclic peptide … (rabies virus strain ERA); remark: listed apart in the source
[71] = target: looped/cyclic peptide … (rabies virus strain ERA); remark: listed apart in the source
[72] = target: looped/cyclic peptide … (rabies virus strain ERA); remark: listed apart in the source
[73] = target: looped/cyclic peptide … (rabies virus strain ERA); remark: listed apart in the source
[74] = target: looped/cyclic peptide … (rabies virus strain ERA); remark: listed apart in the source
[75] = target: looped/cyclic peptide … (rabies virus strain ERA); remark: listed apart in the source
[76] = target: looped/cyclic peptide … (rabies virus strain ERA); remark: listed apart in the source
[77] = target: looped/cyclic peptide … (rabies virus strain ERA); remark: listed apart in the source
[78] = target: looped/cyclic peptide … (rabies virus strain ERA); remark: listed apart in the source
[79] = target: looped/cyclic peptide … (rabies virus strain ERA); remark: listed apart in the source
[80] = target: looped/cyclic peptide … (rabies virus strain ERA); remark: listed apart in the source
[81] = target: looped/cyclic peptide … (rabies virus strain ERA); remark: listed apart in the source
[82] = target: looped/cyclic peptide … (rabies virus strain ERA); remark: listed apart in the source
[83] = target: looped/cyclic peptide … (rabies virus strain ERA); remark: listed apart in the source
[84] = target: looped/cyclic peptide … (rabies virus strain ERA); remark: listed apart in the source
[85] = target: looped/cyclic peptide … (rabies virus strain ERA); remark: listed apart in the source
[86] = target: looped/cyclic peptide … (rabies virus strain ERA); remark: listed apart in the source
[87] = target: looped/cyclic peptide … (rabies virus strain ERA); remark: listed apart in the source
[88] = target: looped/cyclic peptide … (rabies virus strain ERA); remark: listed apart in the source
[89] = target: looped/cyclic peptide … (rabies virus strain ERA); remark: listed apart in the source
[90] = target: looped/cyclic peptide … (rabies virus strain ERA); remark: listed apart in the source
[91] = target: looped/cyclic peptide … (rabies virus strain ERA); remark: listed apart in the source

B1: human monoclonal antibody CRJA (antibody, V domains shown)
VH: EVQLLESGGGLVQPGGSLRLSCAASGFTFSNYAMSWVRQAPGKGLEWVSAISASGHSTYLADSVKGRFTISRDNSKNTLYLQMNSLRAEDTAVYYCAKDREVTMIVVLNGGFDYWGQGTRVTVSS
VL: EIVLTQSPATLSLSPGERATLACRASQTASRYLAWYQQKPGQAPRLLIYDTSNRATGIPARFSGSGSGTDFTLSISSLEPEDFAVYYCQQRFNWPWTFGQGTKVEFK
**Q.** What does the source list for B1?
**A.** OD [1]: 110 OD; OD [2]: 127 OD; OD [3]: 98 OD; OD [4]: 92 OD; OD [5]: 96 OD; OD [6]: 55 OD; OD [7]: 105 OD; OD [8]: 98 OD; OD [9]: 98 OD; OD [10]: 71 OD; OD [11]: 54 OD; OD [12]: 120 OD; OD [13]: 79 OD; OD [14]: 96 OD; OD [15]: 100 OD; OD [16]: 114 OD; OD [17]: 90 OD; OD [18]: 100 OD; OD [19]: 120 OD; OD [20]: 58 OD; OD [21]: 94 OD; OD [22]: 98 OD; OD [23]: 84 OD; OD [24]: 94 OD; OD [25]: 90 OD; OD [26]: 46 OD; OD [27]: 92 OD; OD [28]: 98 OD; OD [29]: 108 OD; OD [30]: 104 OD; OD [31]: 89 OD; OD [32]: 71 OD; OD [33]: 78 OD; OD [34]: 110 OD; OD [35]: 104 OD; OD [36]: 92 OD; OD [37]: 105 OD; OD [38]: 160 OD; OD [39]: 86 OD; OD [40]: 93 OD; OD [41]: 100 OD; OD [42]: 112 OD; OD [43]: 52 OD; OD [44]: 108 OD; OD [45]: 104 OD; OD [46]: 110 OD; OD [47]: 71 OD; OD [48]: 42 OD; OD [49]: 71 OD; OD [50]: 104 OD; OD [51]: 78 OD; OD [52]: 87 OD; OD [53]: 110 OD; OD [54]: 96 OD; OD [55]: 44 OD; OD [56]: 78 OD; OD [57]: 132 OD; OD [58]: 115 OD; OD [59]: 115 OD; OD [60]: 113 OD; OD [61]: 90 OD; OD [62]: 75 OD; OD [63]: 82 OD; OD [64]: 96 OD; OD [65]: 105 OD; OD [66]: 87 OD; OD [67]: 100 OD; OD [68]: 103 OD; OD [69]: 105 OD; OD [70]: 112 OD; OD [71]: 73 OD; OD [72]: 103 OD; OD [73]: 104 OD; OD [74]: 113 OD; OD [75]: 165 OD; OD [76]: 117 OD; OD [77]: 94 OD; OD [78]: 87 OD; OD [79]: 45 OD; OD [80]: 165 OD; OD [81]: 104 OD; OD [82]: 88 OD; OD [83]: 68 OD; OD [84]: 105 OD; OD [85]: 83 OD; OD [86]: 104 OD; OD [87]: 68 OD; OD [88]: 43 OD; OD [89]: 92 OD; OD [90]: 114 OD; OD [91]: 108 OD
